From patent publication US7078174B1, “Screening methods using SOCS box-containing peptides” (The Walter & Eliza Hall Institute of Medical Research, priority 1998, dated 2006)
Entries after “also recorded” stand apart in the source; their conditions may differ. Square brackets hold non-standard residues; d marks the D form. Ends that are not written are not given here. Peptide text beside a SMILES is read from it. * marks the point of attachment. Biotin = O=C1N[C@H]2[C@H](CS[C@H]2CCCCC(=O)*)N1; Nle = CCCC[C@H](N)C(=O)O

Key:
elongins B and C [1] = molecular target: T1, elongins B and C (Mus musculus, UniProt P62869+P83940); test: Affinity purification from M1 cellular extracts with biotinylated SOCS-1 SOCS box peptide on streptavidin-agarose; assay type: binding, murine; details: streptavidin-agarose bound peptide; mass spectrometry
T1 construct: endogenous in cells; host or cells: M1 murine monocytic leukemic cells
Protocol: (§1) Following biotinylation, the peptide was reduced by treatment with 5 mM DTT. Typically, peptide was coupled to streptavidin-agarose resin (Pierce immunopure; 1–2 mg streptavidin/mL resin) by incubating equal volumes of resin and 1 mg/mL peptide for 1 h, followed by extensive washing.
(§2) M1 cells were lysed as previously described, except at a concentration of 10^9 cells/mL of lysis buffer. Streptavidin-agarose binding proteins were precleared from lysate by treating overnight at 4° C. with streptavidin-agarose resin (100 μL of resin/mL lysate). SOCS box peptides (SOCS-1, ASB-2 and WSB-2) were solubilized in water at 10 mg/mL, and aliquots of these, or water alone, were added to 350 μL fractions of cleared lysate, followed by incubation for 3 h at 4° C. These lysates were then added to 30 μL of SOCS-1 SOCS box peptide resin and incubated a further 2 h at 4° C. The resin was extensively washed with lysis buffer and bound proteins were eluted with 20 μL of 4×SDS sample buffer. Proteins were separated by SDS-PAGE on a 4–15% reducing gel.

elongins B and C [2] = molecular target: T1, elongins B and C; test: Affinity purification of SOCS box-binding proteins from M1 cell lysates on GST-SOCS box Sepharose; set-up: species or system murine; details: mass spectrometry and Western blot, not seen with GST control
Protocol: DNA fragments encoding the SOCS boxes from mouse SOCS-1 (residues 172–212) and SOCS-3 (residues 186–225) with an N-terminal linker sequence (EGKSSGSGSESKVD) (SEQ ID NO:3) were generated by PCR and cloned into the bacterial expression vector pGEX-2T (9). The GST fusion proteins were purified by affinity chromatography on glutathione Sepharose 4B (Amersham Pharmacia Biotec) and affinity resins were prepared by covalently coupling 1 mg of purified proteins to 1 ml of NHS-activated Sepharose resin (Amersham Pharmacia Biotec). Before use, the affinity resins were washed with elution buffer (0.5% w/v SDS, 50 mM DTT, 50 mM Tris-HCl, pH 8.0 and 150 mM NaCl) and equilibrated in lysis buffer (0.5% w/v Nonidet P-40, 10 mM Tris-HCl, pH 7.5 and 100 mM NaCl).
M1 cells (2×10^10) were lysed on ice for 30 min in 100 ml of lysis buffer supplemented with protease inhibitors (Complete Cocktail tablets; Boehringer Mannheim, Mannheim, Germany), 1 mM PMSF, 1 mM Na3VO4 and 1 mM NaF. The total cell lysate was centrifuged at 15,000 rpm (SS34 rotor) for 15 min at 4° C. and the clarified supernatant pre-incubated with 1 ml of GST-Sepharose resin for 2 h at 4° C. Half the GST-Sepharose-depleted M1 cell lysate was incubated with 1 ml of GST-SOCS-1 SOCS box- and the other half with GST-SOCS-3 SOCS box-Sepharose resin for 2 h at 4° C. […]

elongin C = molecular target: T2, elongin C (Mus musculus, UniProt P83940); test: Competition of SOCS-1 SOCS box/elongin C interaction in M1 cellular extracts; assay type: binding, murine; details: 80 mM competing non-biotinylated SOCS box peptide, SDS-PAGE, silver staining
T2 construct: endogenous in cells; host or cells: M1 murine monocytic leukemic cells (lysate)
Protocol: as §1, §2

SOCS-3 protein = test: IL-6-induced expression of endogenous SOCS-3 protein in J774 cells; assay type: cell-based; details: LLnL 50 μM, 100 ng/ml murine IL-6, 30–180 min
Protocol: Mouse macrophage-like J774 cells were grown continuously in DME containing 10% bovine calf serum. The cells were washed once in PBS, twice with DME and starved for 1 h in DME containing 0.1% w/v low-endotoxin bovine serum albumin (BSA; Sigma). The proteasome inhibitor LLnL dissolved in dimethyl sulfoxide (DMSO) or DMSO was added to the cells for 15 min and the cells then stimulated with 100 ng/ml of murine IL-6 for the indicated times.
Proteins were immunoprecipitated with anti-myc (9E10; WEHI) and protein A-Sepharose or anti-FLAG antibody conjugated to Sepharose (KM5-IC7; WEHI) and separated by sodium dodecyl sulphate-polyacrylamide gel electrophoresis (SDS-PAGE) (Biorad, Hercules, Calif.) under reducing conditions. Proteins were then electrophoretically transferred to PVDF-Plus membranes (Micron Separations Inc. WestBorough, Mass.) and Western blotted as described (8).

T1 sequence (P83940 whole entry): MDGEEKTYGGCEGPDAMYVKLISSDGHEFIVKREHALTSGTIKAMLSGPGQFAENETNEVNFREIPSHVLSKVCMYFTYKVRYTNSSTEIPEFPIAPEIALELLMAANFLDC
T1 sequence (P62869 whole entry): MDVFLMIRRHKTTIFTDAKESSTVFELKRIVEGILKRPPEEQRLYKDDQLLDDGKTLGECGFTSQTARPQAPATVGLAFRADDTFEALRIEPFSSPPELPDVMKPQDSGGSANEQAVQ
T2 sequence (P83940 whole entry): as the sequence (P83940 whole entry) above
T2 sequence (P62869 whole entry partner): as the sequence (P62869 whole entry) above

## biotinylated SOCS-1 SOCS box peptide: SOCS-1 SOCS box peptide biotinylated at the amino terminus with sulfosuccinimidobiotin, coupled to streptavidin-agarose (Biotin-LRQRRVRPLQELCRQRIVAAVGRENLARIPLNPVLRDYLSSFPFQI; also: coupled to streptavidin-agarose)
Elongins B and C [1]
  interacting proteins identified in M1 cellular extracts: identification by mass spectrometry of elongins B and C as interacting proteins

## GST-SOCS-1 SOCS box: GST fusion protein with SOCS box of mouse SOCS-1 (residues 172–212) and N-terminal linker, coupled to Sepharose (EGKSSGSGSESKVDVRPLQELCRQRIVAAVGRENLARIPLNPVLRDYLSSFPFQI; not fully specified (N-terminus); also: coupled to Sepharose)
Elongins B and C [2]
  elongins B and C in eluates from affinity resin: both elongins were present in eluates

## SOCS-1 SOCS box peptide: Synthetic peptide fragment of murine SOCS-1 corresponding to the SOCS box and five upstream N-terminal residues (LRQRRVRPLQELCRQRIVAAVGRENLARIPLNPVLRDYLSSFPFQI)
Elongin C
  competition of elongin C binding to immobilized SOCS-1 SOCS box peptide: competed for this interaction; also recorded: prevented binding of elongin C to immobilized SOCS-1 SOCS box

## GST-SOCS-3 SOCS box: GST fusion protein with SOCS box of mouse SOCS-3 (residues 186–225) and N-terminal linker, coupled to Sepharose (EGKSSGSGSESKVDVATLQHLCRKTVNGHLDSYEKVTQLPGPIREFLDQYDAPL; not fully specified (N-terminus); also: coupled to Sepharose)
Elongins B and C [2]
  elongins B and C in eluates from affinity resin: both elongins were present in eluates

## CCCC[C@@H](C=O)NC(=O)[C@H](CC(C)C)NC(=O)[C@H](CC(C)C)NC(C)=O [LLnL, N-acetyl-L-leucinyl-L-leucinyl-norleucinal] (Ac-Leu-Leu-[Nle]-aldehyde)
SOCS-3 protein
  SOCS-3 protein levels after IL-6 stimulation: continual increase in SOCS-3 protein levels

## WSB-2 SOCS box peptide: Synthetic peptide fragment of murine WSB-2 corresponding to the SOCS box and five upstream N-terminal residues (TAPRVLSSLKHLCRKALRSFLTTYQVLALPIPKKMKEFLTYRTF)
Elongin C
  competition of elongin C binding to immobilized SOCS-1 SOCS box peptide: competed for this interaction; also recorded: prevented binding of elongin C to immobilized SOCS-1 SOCS box
